Biological target: FLAG-Synoviolin (UniProt Q86TM6 1-617, limits assumed)
Assay: cell-based or functional assay

Sequence of FLAG-Synoviolin (Q86TM6 whole entry): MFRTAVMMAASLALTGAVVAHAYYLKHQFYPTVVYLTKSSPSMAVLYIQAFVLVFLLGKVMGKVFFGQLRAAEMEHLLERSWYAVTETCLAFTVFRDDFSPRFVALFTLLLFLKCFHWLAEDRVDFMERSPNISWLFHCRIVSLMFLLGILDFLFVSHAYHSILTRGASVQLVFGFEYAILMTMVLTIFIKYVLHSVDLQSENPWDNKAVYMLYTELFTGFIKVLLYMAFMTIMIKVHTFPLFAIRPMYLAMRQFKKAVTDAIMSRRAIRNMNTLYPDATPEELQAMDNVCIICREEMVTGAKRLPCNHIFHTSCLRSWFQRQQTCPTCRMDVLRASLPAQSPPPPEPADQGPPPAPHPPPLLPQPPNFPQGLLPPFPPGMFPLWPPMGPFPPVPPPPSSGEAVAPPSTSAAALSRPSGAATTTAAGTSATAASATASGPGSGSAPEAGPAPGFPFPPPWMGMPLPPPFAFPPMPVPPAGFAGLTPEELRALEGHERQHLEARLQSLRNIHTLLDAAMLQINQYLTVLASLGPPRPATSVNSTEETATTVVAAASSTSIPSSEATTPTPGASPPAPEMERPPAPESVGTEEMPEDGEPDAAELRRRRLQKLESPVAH

B1: SP-HA-hsHRD3B (SEL1L/hsHRD3 with an HA-tag inserted immediately after the signal peptide) (other, not shown: small tags and cut ends)
chain: GSQDESLDSKTTLTSDESVKDHTTAGRVVAGQIFLDSEESELESSIQEEEDSLKSQEGESVTEDISFLESPNPENKDYEEPKKVRKPALTAIEGTAHGEPCHFPFLFLDKEYDECTSDGREDGRLWCATTYDYKADEKWGFCETEEEAAKRRQMQEAEMMYQTGMKILNGSNKKSQKREAYRYLQKAASMNHTKALERVSYALLFGDYLPQNIQAAREMFEKLTEEGSPKGQTALGFLYASGLGVNSSQAKALVYYTFGALGGNLIAHMVLGYRYWAGIGVLQSCESALTHYRLVANHVASDISLTGGSVVQRIRLPDEVENPGMNSGMLEEDLIQYYQFLAEKGDVQAQVGLGQLHLHGGRGVEQNHQRAFDYFNLAANAGNSHAMAFLGKMYSEGSDIVPQSNETALHYFKKAADMGNPVGQSGLGMAYLYGRGVQVNYDLALKYFQKAAEQGWVDGQLQLGSMYYNGIGVKRDYKQALKYFNLASQGGHILAFYNLAQMHASGTGVMRSCHTAVELFKNVCERGRWSERLMTAYNSYKDGDYNAAVIQYLLLAEQGYEVAQSNAAFILDQREASIVGENETYPRALLHWNRAASQGYTVARIKLGDYHFYGFGTDVDYETAFIHYRLASEQQHSAQAMFNLGYMHEKGLGIKQDIHLAKRFYDMAAEASPDAQVPVFLALCKLGVVYFLQYIRETNIRDMFTQLDMDQLLGPEWDLYLMTIIALLLGTVIAYRQRQHQDMPAPRPPGPRPAPPQQEGPPEQQPPQ
half-life of SEL1L/hsHRD3 (cycloheximide chase, Western blotting), in the absence of Synoviolin: 1.8 h | half-life of SEL1L/hsHRD3 (cycloheximide chase, Western blotting), with FLAG-Synoviolin co-expressed: 4.3 h

Reference: patent US20070238677A1 (LOCOMOGENE, published 2007)
